{"source": "paper PMC4512752", "origin": "cited, not measured here", "test_in_all_cases": "MALLS", "key": {"[1]": {"molecular_target": "Arrestin-1 (Homo sapiens) (UniProt P10523)"}, "[2]": {"molecular_target": "Arrestin-1 (Mus musculus) (UniProt P20443)"}, "Arrestin-2 (Bos taurus) [3]": {"molecular_target": "Arrestin-2 (Bos taurus) (UniProt P17870)"}, "Arrestin-2 (Bos taurus) [4]": {"molecular_target": "Arrestin-2 (Bos taurus) (UniProt P17870)", "remark": "listed apart in the source"}, "Arrestin-3 (Bos taurus) [5]": {"molecular_target": "Arrestin-3 (Bos taurus) (UniProt P32120)"}, "Arrestin-3 (Bos taurus) [6]": {"molecular_target": "Arrestin-3 (Bos taurus) (UniProt P32120)", "remark": "listed apart in the source"}}, "note": "pKd: −log10 of the molar value. Where two headings read alike, the source gives them in different places.", "data": [{"substance": "Arrestin-1 (from UniProt P10523)", "values": [{"measurement": "pKd", "setting": "[1]", "result": 5.53}]}, {"substance": "Arrestin-1 (from UniProt P20443)", "values": [{"measurement": "pKd", "setting": "[2]", "result": 4.24}]}, {"substance": "Arrestin-2 (from UniProt P17870)", "values": [{"measurement": "pKd", "setting": "Arrestin-2 (Bos taurus) [3]", "result": 5.26}, {"measurement": "pKd", "setting": "Arrestin-2 (Bos taurus) [4]", "result": 4.00}]}, {"substance": "Arrestin-3 (from UniProt P32120)", "values": [{"measurement": "pKd", "setting": "Arrestin-3 (Bos taurus) [5]", "result": 5.11}, {"measurement": "pKd", "setting": "Arrestin-3 (Bos taurus) [6]", "result": 4.00}]}]}
